Test results as given in the nanobody polyreactivity screen of Harvey et al. (2022).

Assay: yeast display, Sf9 membrane polyspecificity reagent, FACS + sequencing; frameworks hold sequencing errors
How it was run: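 Galactose-induced (36–48 hours) yeast carrying a synthetic nanobody display library were exposed to 10% biotinylated, detergent-solubilized Sf9 membrane reagent at 4 °C for 1 hour. FACS followed streptavidin microbead enrichment, using low and high (top ~1%) gates for expression (anti-HA) and reagent binding (streptavidin). Colony PCR, MiSeq 2 × 250 sequencing and CDR-length filtering followed. Labels for polyreactivity reflect the gate of origin.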

Sequence	polyreactivity (PSR sort gate)
QVQLVESGGGLVQAGGSLRFSCAASGRIFYPYAMGWYRQAHGKERELVAAIRRSGVDTYYADSVKGRFTISRDNAKNTVYLQMNSLKPEDTAVYYCAADPYWFFPHYDSWGQGTQVTVSS	low polyreactivity
QVQLVESGGGLVQAGGSLRLSCAASGSIFFSYAMGWYRQAPGKERELVAGINWSGGSTYADSVKGRFTISRDNAKNPVYLQMNSLTPEDTAVYYCAAKYYSERSRYHYWGQGTQVTVSS	low polyreactivity
QVHLVESGGGLVQAGGSLRLSCAASGRTFSTYAMGWYRQAPGKESELVAAISSGGGRTYYADSVKGRFTISRDNAKNTVYLQMNSLKPEDTAVYYCAADRYFRSRRSYEYWGQGTQVTVSS	low polyreactivity
QVHLVESGGGLVQAGGSLRLSCAASGFIFYYYTMGWYRQAPGKEREFVAAITYSGGRTYYADSVKGRFTISRDNAKNSVYLQMNSLKPEDTSVYYCAAVPRYGPSYRMDYWGQGTQVTVSS	high polyreactivity
QVQLVESGGGLVQAGGSLRLSCAASGSTFIYYAMGWYRQAPGKERELVAAISGSGASTYYADSVKGRFTISRDNAKNTVYLQMNSLKPEDTAVYYCAARSYGITDYGMYSWGQGTQVTVSS	high polyreactivity
QVQLVESGGGLVQAGGSLRLSCAASGFTFSLYAMGWYRQAPGKERELVASISSRGGSTYYADSVKGRFTISRDNAKNTVYLQMNSLKPEDTAVYYCNAGSVTRAWWGYWPFNYWGQGTQVTVSS	low polyreactivity
QVQLVESGGGLVQAGGSLRLSCAASGRIFTYYAKGWYRQPPGKERELVAVISSVGGTYYADSVKGRFTISRDNAKNTVYLQMNSLKPEDTAVYYCAALSDSRWHRFGYWGQGTQVTVSS	high polyreactivity
QVQLVESGVGLVQARGSLRLSCAASGSIFRRNAMGWYRQAHGKERELVAAISASGGRTYADSVKGRFTISRDNSKNTVYFQMKSLNPEDKAVYYCAARCYCSSRFDYWGLGTQVTVSS	high polyreactivity
QVQLVESGGGLVQAGGSLRLSCAASGGIFGGNAMGWYRQAPGQERELVAAISRSSGSTYYADSVKGRFTISRDNAKNTVYLQMNSLKPEDSAVYYCNVEGYGRRFDYWGQGTQVTVSS	high polyreactivity
QDQLVESGGGLVQAGGSLRLSSAASGSTFDSNAMAWYRQAPGKERELVAAISSSGGRTSYADSVKGRFTISRDNAKNTVYLQMNSLKPEDTAVYYCADRFKSVDYVQYYYWGQGTQVTVSS	low polyreactivity
QVQLVESGGGLVQAGGSLRLSCAASGRTFDRNAMGWYRQAPGQERELVAAITSRGGRTYYADSVKGRFTISRDNEKNTVYLQMNSLKPADTAVYYCAADLFSSRVRSNFDYWGQGTQVTVSS	high polyreactivity
QVQLVESGGGLVQAGGSLRLSCAASGFIFYYYTMGWYRQAPGKEREFVAAISSSGTITYYADSVKGRFTISRDNAKNTVYLQMNSLKPEDTAVYYCNAELYYPYEFWRFSGYDYWGQGTQVTVSS	low polyreactivity
QVQLVESGGGLVQAGGSLRLSCAASGGIFDTYAMGWYRQAPGKERELVAAISRRGGNTYYADSVKGRFTISRDNAKNTVYLQMNSLKPEDTAVYYCAAYYHGRMDYWGQGTQVTVSS	high polyreactivity
QDHLVESGGGLVQAGGSLRLSCAASGISFSVNAMGWSRQAPGKERELVASISSGGSTNYADSVTGRFTISRDNAKNTVYLQMNSLNPEDTAVSYCAAGYWNDFDWGQGTQVTVSS	low polyreactivity
QVQLVESGGGLVQAGGSLRLSCAASGRTFPFNAMGWYRQAPGKERELVAAIRWSGGSTYYADSVKGRFTISRDNAKNTVYLQMNSLKPEDTAVYYCAAVYPKIRSYRYGYWGQGTQVTVSS	high polyreactivity
QVQRVDSGGGLVQAGGSLRLSCAASGITFTLYDMGWYRQAPGKERELVASITSDGSTDYADSVKGRFTISRDNAKNTVYLQMISLKPEDTAVYYCNARVTYSWYRFGRSGDDSWGQGTQVTVSS	low polyreactivity
QVQLVESGGGLVQAGGSLRLSCAASGIIFHKYAMGWYRQAPGTERELVAAISRSGGRTYYADSVKGRFTISRDNAKNTVYLQMNSLKPEDTAVYYCAARYLKPGGAYDSWGQGTQVTVSS	high polyreactivity
QVQLVESGGGLVQAGGSLRLSCAASGSIFAWYAMGRYRQAPGKEMELVAAIRYRGDGTYYADSVKGRFTISRDNAKNTVYLQMNSLKPEDTAVYYCAADSRVYRGGYIYRYGYWGQGTQVTVSS	low polyreactivity
QVHLVESGGRLVQAGGSLRLRCAASGRTFIANVMGLYRQAPRKETELVAAISTRGGSTYYADSVKGRFTISRDYAKYTVYLHMNRLKPEDTAVDYCAAYYPAQRGFNSWGQGTQVTVSS	high polyreactivity
QVQLVESGGGLVQAGGSLRLSCAASGRIFRYNAMGWYRQAPGKEREFVAAITQSGGSTYYADSVKGRFTISRDNAKNTVYLQMNRLKPEDTAVYYSAADRFYWTYLNYQFLTDYWGQGTQVNVSS	high polyreactivity
QVQLVESGGGSLRLSCAASALTFGGYTMGWYRQAPGKERELVAAISSSDSTNYADSVKGRFTISRDNAKNTVYLQMNSLKPEDTAVYYCAADSGQWSRYSSFGDEGDSWGQGTEVTVSS	low polyreactivity
QVQLVESGGGLVQAGGSLRLSCAASGRTFKRYAMGWYRQAPGKERELVAAITASGGNTYYADSVKGRFTISRDNAKNTVYLQMNSLKPEDTAVYYCNAVTSVQARPRNYYYWGQGTQVTVSS	high polyreactivity

Sequence	polyreactivity (PSR sort gate)
QVQLVESGGALVQAGGSLSLSCAASGSIFVGNAMGWYRQAPGKERELVAAINGGGTNYADSVKGRFTFSRDNAKNTVYLQMNSLKPEDTAVYYCAAPVRSNDSAYLHRDNDYWGQGTQVTVSS	low polyreactivity
QVQLVESRGGLVQAGGSLRLSCAASGPTFRNTAMGWSRQAPGKDREFVAVISNTGGSTYYADSVKGRFTISRDNAKNTVYLQMNSLKAEDTAVYYCGVRPRYSQYYYWGQGTQVTVSS	high polyreactivity
QFQLVESGGGLVQAGGSLRLSCAASGRIFYSNAMGWYRQAPGKERELVAAISSSGGITYYADSVKGRFTISRDNAKNTVNLQMNSLKPEDSAVYYCAVDSRHYIRAFDHWGQGTQVTVSS	low polyreactivity
QVQLVESGGGLVQAGGSLRLSCAASGFIFKYYAMGWYRQAPGKERELVAAIRSGGGTNYADSVKGRFTISRDNAKNTVYLQMNSLKPEDTAVYYCAARGYTSYKHFGYWGQGTQVTVSS	high polyreactivity
QVQLQESGSGLVQAGGSLRLSCAASGYISLGDNMGWYRQAPGKEREFVATISVGGITYYVDSVKGRFTISRDIAKNTVYLQMNSLKPEDTAVYYCADLDIYYFRYYYWGQGTQVTVSS	low polyreactivity
QVQLVDSGGVLVQAGGSLSLSCAASGITFPINAMGWYRQAPGKEREFVATISFSGASTYYADSVKGRFTISRDNAKNSVYLQMNSLKREDTAVYYCAARWKPPYWGRYYYWGQGTQVTVSS	high polyreactivity
QVKLEESGGGLVQAGGSLRLTCAASGSTFKYNAMGWYRQAPGKERELVAAISSGGSTNYADSVKGRFTISRDNAMNTVYLQMISLKPEDTAVYYCNADYTYVTAWYYYWGQGTQVTVSS	high polyreactivity
QVQLVESGGGLVQAGGSLRLSCAASGLIFKLNAMGWYRQAPGKARELVAAIRASTGSTYYADSVKGRFTISRDNAKNTVYLQMNSLKPEDTAVYYCAVRLRWYFFLMDYWGQGTQVTVSS	high polyreactivity
QVQLKENGVGLVQAGGSLRMSCAASGYISHADEMGWNSQAPGKEHELVASISNGGSTNYADSVKGRFTISRDNAKNSVYLQMNSLKSEDTAVYYCAAWTGQVDINYYWGQGSQVTVSS	low polyreactivity
QFQLVDSGGGLVQAGASLRLSCAASGFIFEWYTIGWSREAPGTAREFVARISSDGSTTYADSVKGRFTSSRDNAKNTVYLQMNSLKPEDTAVYYCADDVSYPGQKYIFDDWGQCTQVTVSS	low polyreactivity
QVQLVESGGGLVQAGGSLRLSCAASGFIFRYNTMGWYRQAPGIVRELVAAISVSGARTYYADSVKGRFTISRDNAKKTVYLQMNSLKPEDTAVYYCNRRYPFYSRYNNDYWGLGTQVTVSS	high polyreactivity
QVQLVESGGGLVQAGGSLRLSCVASGRIFARNAMGWYRQAPGKERELVAAITWSVGSTYYADSVKGRFTISRDNAKNTVYLQMISLKPEDTAVYYCAERYWYSRYWYDYWGQGTQVTVSS	high polyreactivity
QVQLAESGRGLVQAGGSLRLSCADSGIIYYFYAMGWYRQAPGKETEFVAAISGTGGRTYYADSVKGRFTISRDNAKNTVYLQMNSLKPEDTAVYYCNADDTPVPSIRFDYWGQGTQVTVSS	low polyreactivity
QVQLVESGGGLVQAGGILRLSCAASGFTFSSNAMGWYRPAPGKERELVAAISKGGGSTYYADSVKGRFTISRDNAKNSVYLQMNSLKPEDTAVYYCATRRRGGLTFDSWGQGTQVTVSS	high polyreactivity
QVQLVESGGGLVQAGGSLRLSCAASGRTFGRYAMGWYRQAPGKERELVARISFSGGSTHYADSVKGRFTISRDNAKNTVYLQMNSLKPEDTAVYYCNTDWYRNWGKPYYYWGQGTQVTVSS	high polyreactivity
QVQLVESGGGLVQAGGSLRLSCAASGLIFAYNTMGWYRQAPGKERELVAGITSGGSTYYADSVKGRFTISRDNAKNTVYLQMNSLKPEDTAVYYCAAAYRTGSVSFGYWGQGTQVTVSS	high polyreactivity
QVQLVESGGGLVQAGGSLRLSCAASGRTLTGNAMGWYRQAPGKERELVAAISWSAGSTYYADSVKGRFTISRDNAKNTVYLQMNSLKPEDTAVYYCALTLRRNLVRMGYWGLGTQVTVSS	high polyreactivity
QVQLVESGGGLVQAGGSLRLSCAASGSTIPPYVMGWYRQAPGKERELVAAISSSTSSTYYADSVKGRFTISRDNAKNTVYLQMNSLKPEDTAVYYCADEYYTYEYIYDYWGQGTQVTVSS	high polyreactivity
QVQLVESGGGLVQAGGSLRLSCAASGSTFRANAMGWYRQAPGKERELVAAISSGGSTYYADSVKGRFTISRDNAKNTVYLQMNSLKPEDTAVYYCAAVTVKYDESGIYYSDDDYWGQGTQVTVSS	high polyreactivity
QVQLVESGGGLVQAGGSLRLSCAASGRIFRYNAMGWYRQAPGKERELVAAISWGGGSTYYADSVKGRFTISRDNAKNTVYLQMNSLKPEDTAVYYCAVTSGSSFRMGYWGQGTQVTVSS	high polyreactivity
QVQLVESGGGLVQAGGSLRLSCAASGYIFTYNAMGWYRQAPGKERELVAAISYSGGSTYYADSVKGRFTISRDNAKNTVYLQINSLNPEDTAVYYCNAVWRHTYGNYFWGQGTQVTVSS	high polyreactivity
